Reference: patent US20170252417A1 (MIT, published 2017)

Target: mouse serum albumin (MSA) (mouse, UniProt P07724 25-608)
Assay: yeast surface display library on rcSso7d scaffold, selection for MSA binders

Binder | binding result
M18.2.5 (designed binder, Isolated from a yeast surface display library built on the rcSso7d scaffold; In the vaccines it was fused at its C-terminus to GGGS-His tag-GGGS-E7 long) ATVKFTYRGEEKQVDISKIKWVVRLGQVIMFKYDEGGGASGYGRVSEKDAPKELLQMLEK | binds
M11.1.2 (designed binder, Isolated from a yeast surface display library built on the rcSso7d scaffold; In the vaccines it was fused at its C-terminus to GGGS-His tag-GGGS-E7 long) ATVKYTYRGEEKRVDISKIKWVNRWGQHLAFKYDKGGGAAGYGWVSEKDAPKELLQMLEKR | binds
